Patent US9388243B2, “Method of target membrane protein depletion” (Samsung Electronics Co., Ltd., priority 2013, dated 2016)

Molecular target: T1, EGFR in MKN45 stomach cancer cells (Homo sapiens, UniProt P00533)
T1 construct: endogenous in cells; host or cells: MKN45 (JCRB)
Assay: Confocal microscopy of EGFR internalization and degradation in MKN45 cells
Assay type: cell-based
Settings: MKN45, 5 μg/ml each, 4 hrs, confocal images (FIGS. 5-7)
Experimental: Each antibody was used at a density of 5 μg/ml/well, whether individually or in combination. For control, the cells were treated with PBS only. The cells were immobilized onto the plates by treatment with 4% (v/v) formaldehyde for 15 min, washed three times with PBS, and then blocked with a blocking buffer (0.5% triton x-100 and 5% donkey serum) at room temperature for 1 hr. […] The cells were washed again three times with PBS, and incubated at room temperature for 1 hr with 100 μl of a 1:2000 dilution of a secondary antibody (A21433, Invitrogen). After being washed three times with PBS, the cells were counterstained with a DAPI-containing mounting medium (H-1200, Vector Lab), and examined by Confocal microscopy (Zeiss, LSM710).
Comparison was made of degradation efficiency between the bispecific antibody and a combination of the monospecific antibodies.

B1: anti-EGFR ab: scFv-Fc antibody recognizing EGFR: SEQ ID NO: 109 and 111 variable domains fused to N-terminus of IgG2 Fc (antibody, V domains shown)
VH: QVQLVQSGAEVKKPGSSVKVSCKASGFTFTDYKIHWVRQAPGQGLEWMGYFNPNSGYSTYAQKFQGRVTITADKSTSTAYMELSSLRSEDTAVYYCARLSPGGYYVMDAWGQGTTVTVSS
VL: DIQMTQSPSSLSASVGDRVTITCRASQGINNYLNWYQQKPGKAPKRLIYNTNNLQTGVPSRFSGSGSGTEFTLTISSLQPEDFATYYCLQHNSFPTFGQGTKLEIKRT
modifications: IgG2 Fc without entry; linker; Synthetic (heavy-chain variable region of anti-EGFR antibody); Synthetic (light-chain variable region of anti-EGFR antibody)
internalization into a cell and degradation of EGFR: induced by neither | internalization into a cell and degradation of EGFR (listed as anti-EGFR antibody): did not provoke the degradation of EGFR at all
